Here are results for one molecule from paper doi:10.1101/2024.04.20.590211 (bioRxiv, 2024).

For this assay, the target named is FluPolB, influenza B/Memphis/2003 polymerase heterotrimer (wild type) (influenza B virus B/Memphis/2003, UniProt Q5V8Z9;Q5V8Y6;Q5V8X3). Nature of the assay: SEC. On the technique in general: In gel filtration, larger molecules generally elute earlier.

B1: hANP32A 144-249 (LCAR alone) (domain or fragment)
chain: YLDGYDRDDKEAPDSDAEGYVEGLDDEEEDEDEEEYDEDAQVVEDEEDEDEEEEGEEEDVSGEEEEDEEGYNDGEVDDEEDEEELGEEERGQKRKREPEDEGEDDD
For the molecule B1, the binding result is “binds”.
